Laboratory results published in the nanobody polyreactivity screen of Harvey et al. (2022).

Experiment: yeast display, Sf9 membrane polyspecificity reagent, FACS + sequencing; frameworks hold sequencing errors
How it was run: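 Polyreactivity labels are assigned by the sorting gate from which each nanobody was recovered. The gates were low and high (top ~1%), set on anti-HA fluorescence for expression and streptavidin fluorescence for reagent binding. Before sorting, galactose-induced (36–48 hours) yeast display cells were stained for 1 hour at 4 °C with 10% biotinylated, detergent-solubilized Sf9 membrane reagent.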

Sequence	polyreactivity (PSR sort gate)
QVQLVESGGGLVQAGGSLRLSCAASGRTFAFYTMGWYRQAPGKERELVAAITRTGSTSYADSVKGRFTISRDNAKNTVYLQMNSLKPEDTAVYYCATVGYPYTLWHQMDYWGQGTQVTVSS	low polyreactivity
QVQLVESGGGLVQAGGSLRLSCAASLRTFAWYAMGWYRQAPGKERELVAAITNRGSGTYYADSVKGRFTISRDNAKNTVYLQMNSLKPEDTAVYYCAKDPITATTLDERVFYWGQGTQVTLSS	low polyreactivity
QVQLVESGGGLVQAGGSLRLSCAASGRTFYSNTMGWYRQAPGKEREFVAAIPSIVGSTYYADSVKGRFTISRDNAKNTVYLQMNSLKPEDTAVYYCATRYVVIEYDYWGQGTQVTVSS	low polyreactivity
AVQLVESGGGLVQAGGSLRLSCAASGSTCTGMTWDGRHRRLGRKELVAGIRSAGSTNYADSVKGRFTISGDNAKITVYLQLNSLKPEDTAVYYCAKDYRWVWRKYGYWGQGTQVTVSS	low polyreactivity
QVQLVESGGGLVQAGGSLRLSCAASGRIVRNAMGWYRQAPGKERELVAAISRSGGSTYDADSVKGRFTISRDNAKNTVYLQMNSLKPEDTAVYYCAKRSTSQSLQVEYWGQGTQVTVSS	high polyreactivity
QVQLVESGGGLVQAGGSLRLTCAASGRTFRPYAMGGYRQAPGKERQLVAAITYSGGSTYYADSVKGRFTISRDNAKNTVYLQMNSLKPEDTAVYYCAAEIAATYRPEYDYWGQGTQVTVSS	high polyreactivity
QVQLVESGGGLVQAGGSLRLSCAASGSTSNIYGMGWYRQAPGKERELVAGISRRGSSTYYADSVKGRFTISRDNAKNSVYLHMNSLKPEDTAVYYCNTRSGGYKHRYDYWGQGTQVTVSS	high polyreactivity
QVQLVESGGGLVQAGGSLRLSCAASGLIFRYYTMGWYRQAPGKERELVATITKSGSSTYYADSVKGRFTISRDNAKNTVYLQMNSLKPEDTAVYYCAARAYPSYPRGVYAYYYWGQGTQVTVSS	high polyreactivity
QVQLVESGGGLVQAGGSLRLSCAASGIIFRTYAMGCYRQAPGKERELVAAITGSGGITYYADSVKGRFTISRDNAKNTVYLQMNSLKPEDTAVYYCAARGTRDGVQRYGYWGQGTQVTVSS	high polyreactivity
QVQLVESGGGLVQAGGSLRLSCAASGIIFEYYAMVWYRQAPGKDRELVAAISRSSVSTYYADSVKGRFTISRDNAKNTVYLQMNSLKPEDTAVYYCAARQGYGYYKYGKYYYWGQGTQVTVSS	high polyreactivity
QVQLVESGGGLVQAGGSLRLSCADSGSTFWYNAMGWYRQAPGKERELVAAITWSASRTYYADSVKGRFTISRDNAKNTVYLQMNSLKPEDTAVYYCAKASPRYKYFTGDYWGQGTQVTVSS	high polyreactivity
QVQLVESGGGLVQAGGSLRLSCAASGSISAVNTMGWYRQAPGKERELVATISYSTASTYYADSVKGRFTISRDNAKITVYLQMNCLKPEDTAVYFCAADAYFDTWYDYWGQGTQVTVSS	low polyreactivity
QVQLVESGGGLVQAGGSLRLSCAASGSIFQYNAMGWYRQVPGKERELVAAITSGGSTYADSVKGRFTISRDNAKNTVYLQMNSLKPEDTAVYYCNADRWFGNYLHLTFLNDYWGQGTQVTVSS	low polyreactivity
QVQLVESGGGLVQAGGSLRLSCAASGRTFYWYTMGWYRQATGKERELVAAISIGGITSYADSVKGRFTISRDNAKNTVYLQMNSLKPEDTAVYYCAAPLSYKNVKYDYWGQGTQVTVSS	low polyreactivity
QVQLVESGGGLVQAGGSLRLSCAASGFIFRWYAMGWYRQEPGKERELVAAITWRGGSTYADSVKGRFTISRDNAKNTVYLQMNSLKPEVTAVYYCAAETHRRYDYWGQGTQVTVSS	high polyreactivity
QVQLVESGGGLVQARGSLRLSCAASGSTFYYYAMGWYRQAPGKEREFVAAISWTGGTTYYADSVKGRFTISRDIAKNTVYLQMNSLKPEDTAVYYCNADPWWDSDWGYDYWGQGTQVTVSS	low polyreactivity
QFQLVESGGGLVQAGGSLRLSCAASGRTFQHNVMGWYIQAPGKERELVASITCRGGSTYYADSVKGRFTISRDNAKNTVYLQMNSLKPEDTAVYYCAARNGFRRVRFDYWGQGTQVTVSS	low polyreactivity
HVQLVESGGGLVQAGGSLRLSCAASGSTFAGNAMGWYRQAPGKEWELVAAIDSSTGSTYYADSVKGRFTISRDNAKNTVNLQMNSLKPEDTAVYYCNKTSFLVKLDYWGQGTQVTVSS	low polyreactivity
QVQLVESGGGLVQAGGSLRLSCAASGSTFPYYAMGWYRQAPGKEREFVAAISYRGGSTYYADSVKGRFTISRDNAKNTVYLQMNSLKPEDTAVYYCAARSWQDRYANGYNYWGQGTQVTVSS	high polyreactivity
QVQLVESGGGLVQAGRSLRLSCAASGRTFPYNAMGWYRQAPGKERELVAAITWSGGSTYYADSVKGRFTISRDNAKNTVYLQMNSLKAEDTAVYYCNKDFPVFEYDYWGQGTQVTVSS	low polyreactivity
QVQLVESGGGLVQAGGSLRISCAASGSNLSPYVMGWYRQAPGKERELVSTISRSGGRTYYADSEKGRFTISRDNAKNTFNLQMNSLKPEDTAVYYCAREDWGSYSDMDSWGQGTQVTVSS	low polyreactivity
QVQLVESGGGLVQAGGSLRLSCAPSGITFWYYAMGWYRQAPGKERELVAAINKSGGRTYYADSVKGRFTISRDNAKNTVYLQMNSLKPEDTAVYYCAAPRSRSRTSRFDYWGQGTQVTVSS	high polyreactivity

Sequence	polyreactivity (PSR sort gate)
QVQLVESGGRLVQAGRSLRLSCAASGINFYGYAMGWYRQAPGKERELVAAITSYDGSTYYADSVKGRFTISRDNAKNTVYLQMNSLKPEDTAVYYCAAYRYGSRGGYWGQGTQVTVSS	high polyreactivity
QVQLVESGGGLVQAGGSLRLRCAASGSTILYYAMGWYRQAPGKERELVADIDWSGDSTYYADSVKRRFRISRDNAKNTVYFQMNSLKPEDTAVYYCAATQYYPVPYDYWGQGTQVTVSS	low polyreactivity
QVQLVESGGGLVQAGGSLRLSCAASGSTFFANTMGWYRQAPGKERELVAAIRDSGGSTYYADSVKGRFTISRDNSKNTVYLQMNSLKPEDTAVYYCSARYLVYGYPYRFYYWGQGTQVTVSS	high polyreactivity
QVQRVESGGGLVQAGGSLRLSCAGCGRIFHYYAMGWYRQAPGKEMELVAAITSSGGSTYYADSVKGRFTISRDHPKNTVYLQMNSLKPEDTAVYYCAAGLIVGRFLRYDYWGQGTQVTVSS	high polyreactivity
QVQLVESGGGLVQAGGSLRLSCAASGSIFYVYAMGWYRQAPGKERELVADITTRDGDTYYADSVKGRFTISRDNAKNTVYLQMNSLKPEDTAVYYCAADLNAYPQRAYDYWGQGTQVTVSS	low polyreactivity
QVQLVESGGGLVQAGGSLRLSCAASGRTFPGNDMGWYRQAPGKERELDAAISSDDSTYYADSVKWRFTMSRDNAKNTVYLKMNSLKPEDTAVYYCNAEYYEGYIGVPGSYWPYEYWGQGTQVTVSS	low polyreactivity
QVQLVESGGGLVQAGGSLRLSCAASGSIFFFNAMGWYRQAPGKERELVAAISESGTSTYYADSVKGRFTISRDNAKNTVFLQMNSLKPEDTAVFYCKVVFRYAYGVYYTPEFYYWGQGTQVTVSS	low polyreactivity
QVQLVESGGGLVQAGGSLRLSCAASGFISYPYAMGWSRPAPGKERELVAAISSSGGSTYYADSVKGRFTISRDNAKNTVYLQMNSLIPEDTAVYYCAARGFYRSYYWGQGTHVTVSS	high polyreactivity
QVQLVESGGGLVQAGGSLRLSCAASGSTFVVNTMGWYRQAPGKERELVATISDIGSSTDYADSVKGRFTISRDNAKNTVYLQMNSLKPEDTAVYYCAASIDDIITDDFYWVSWAYYYWGQGTQVTVSS	low polyreactivity
QVQLVESGGGLVQAGGSLRLSCAASGSIFYTNAMGWYRQAHGKERELVAAIRTGGSTNYADSVKGRFTISRDNAKNTDYLQMNSLTPDDTAVYYCNADVYIRDLFYPYIYTYDYWGQGTQVTVSS	low polyreactivity
QVQLQESGGGLVQAGGNLRLSCAACGNIFPSAVMGWYRQALGKEREFVATINSGSNTYYADSVKGRFTISRDHAKNTVYLQTNSLKLEDTAVYYCAAYFKLPAWHTYWGQGTQVTVSS	low polyreactivity
QVQLVESGGGLVQAGGSLRLSCAASGSTFGTYAMGWYRQAPGKERELVAAISSGGSTYYADSVKGRFTISRDNAKNTVYLQMNSLKPEDTAVYYCAAGYYWYVWGFGYWGQGTQVSVSS	low polyreactivity
QVQLVESGGGLVQAGGSLRLSCAASGRIFKYYAMGWYRQAPGKERELVAAITSGGSTYYADSVKGRFTISRDNAKNTVYLQMNSLKPEDTAVYYCNADGYLSYAFDYWGQGTQVTVSS	low polyreactivity
QVQLVESGGGIVQAGGSLRLSCAASGRTFAVYAMGWYRQAPGKERELVAAINSSGRTDYADSVKGRFTISRDNAKNTVYLQMNSLKPEDTAVYYCNADFYFRRYRYRYNYWGQGTQVTVSS	high polyreactivity
QVQLVESGVGVVQAGGSLRLSCAASGRTFLRYTMGGYRQAPGKEREFVAAISYDTSSTYYADSVKGRFTISRDNAKNTVYLQMNSLKPEDTAVYYCAATLSRVSLSYGYWGLGTQVTVSS	low polyreactivity
QVQLVESGGGLVQAGGSLRLSCAASGGTFRYYAMAWYRQAPGKERELVARIRYNGGSTYYADSVKGRFTISRDNAQYTVYLQMNSLKPEDTAVYYCAGRRTGGMGYWGQGTQVTVSS	high polyreactivity
QVQLVETGGGLVQAGGSRRVSCAASGFIFWWYPMGWYRQSPGKERELVAAISGRGGSTYYADSVKRRFTISRDNAKNTVYLQMNSQKPEDTAVYYCAARLPWSYYRTQGYNYGGQGTQVTVSS	high polyreactivity
QVQLVESGGGLVQAGGSLRLSCAASGRIFNKYVMGWYRQAPGKERELVAAISGRGGSTYYADYVKGRFTISRDNAKNTVYLQMNSLKPEDTAVYYCAARYGYYTSDYKYYDWGQGTQVTVSS	high polyreactivity
QVELVESGGGLVQPGGSLRLSCAASGSTFYYYAMGWYRQAPGKERELVATISSGSSTNYADSVKGRFTISRDNAKNTVYLQMNSLKPEDTAVYYCAADRWYITLSIDATISYEYWGQGTQVTVSS	low polyreactivity
QVQLVESGGGLVQAGGSLRLSCAASGLIFRRYTMGRYRQATGKERELVAAISRGGASTSYADSVKGRFTISRDNAKNTVYLQMNSLIPEDTAVYYCAATSPRSSRTYAYDYWGQGTQVTVSS	high polyreactivity
QVQLVESGGGLVQAGGSLRLSCAASGFIFYRYAMGWYRQAPGKERELVAAITGSGARTYYADSVKGRFTISRDNAKNTVYLQMNSLKPEDTAVYYCAARYILSKYGSGVRYNYWGQGTQVTVSS	high polyreactivity
